167 variants from the RNAGym collection of RNA variant scans (doi:10.7554/elife.80360) can be followed below.

B1: HDV Ribozyme (parent)
chain: GGCCGGCAUGGUCCCAGCCUCCUCGCUGGCGCCGGCUGGGCAACAUUCCGAGGGGACCGUCCCCUCGGUAAUGGCGAAUGGGACCCA

Variants of B1 are the subject of the data set. The data set can be described thus: self-cleavage, relative activity (ratio to wild type); higher = more cleavage; co-transcriptional.
On to G2C G39C, for which the self-cleavage was 0. For the variant G2C G39A, the self-cleavage worked out at 0.121.

With G2C G73U, the self-cleavage came to 0.0683. Under G2C C3G stands 0. On to G2U G76A, for which the self-cleavage came to 0.112. Under G2U G73A stands 0.0484. Under G1U G55C stands 0.455; under C3A G25U, 0.0631; under G2C A43G, 0. Consider G2C A43U, for which the self-cleavage worked out at 0.0297. With G2C A42G the figure was 0.13; with C3A C85A, 0.646. Take G1U C7A: the self-cleavage was 0.169.

Turning to G1U C7G, the self-cleavage stood at 0.332.

G2C G59A: the self-cleavage turned out to be 0.0193.

As for G2C G40A, the self-cleavage came out at 0.0773. Take G2C G40U: the self-cleavage worked out at 0.0409.

As to G1U G5A, the self-cleavage was 0.445. Under G1U U79G stands 0.539.

In the case of G2C C62A, the self-cleavage was 0.0462. With G2U A43G the figure was 0.0205; with G2A A78C, 0.0432. With G2A A78G the figure was 0.0504.

With C3A C32G, the self-cleavage stood at 0.0266. Under G1U C26U stands 0.222; under G2C C18A, 0.0346. For the variant G2A U47G, the self-cleavage turned out to be 0.374. Under G2A U47C stands 0.0292. Under G2U G82C stands 0.112; under G2C C24A, 0.0791; under G2C G53U, 0.0665. Under G2U G68U stands 0.134.

For the variant G1U G31A, the self-cleavage is 0.364. Regarding G1U U20C, the self-cleavage came out at 0.401. Under G2C G54C stands 0.0208. Under G1C U79G stands 0.0723. Under C3A C24G stands 0.089; under G2C U27A, 0. As to G2U A16U, the self-cleavage stood at 0.0237. Turning to G2U A16G, the self-cleavage amounted to 0.0426. Under G2C G55C stands 0.0656; under G2C G55U, 0.0346.

With G2U C84A, the self-cleavage came out at 0.0219. Under C3A G11U stands 0.138. On to G2C C61U, for which the self-cleavage worked out at 0.137. Under G2C C61G stands 0.0647. Under G2A G59A stands 0.208; under G2U G35A, 0.0308; under G2U G35U, 0.0318.

G1U U46G: the self-cleavage amounted to 0.259.

G2C G5A: the self-cleavage worked out at 0.0563. With C3A G5A the figure was 0.0332; with G2C G82A, 0.0462; with G1U C14G, 0.397. With G1U C14A, the self-cleavage came to 0.222. Consider G2A G39A, for which the self-cleavage amounted to 0.0171. In the case of G2U C85A, the self-cleavage stood at 0.104.

Regarding C3A A16U, the self-cleavage turned out to be 0.318.

Regarding G2U C64A, the self-cleavage was found to be 0.0339. Under G2U C64U stands 0.111.

Consider G2U G52U, for which the self-cleavage amounted to 0.055. With C3A C19G the figure was 0.0441; with G1C U69C, 0.158; with G2U G31C, 0.0155. Under G2C U23C stands 0; under G2A G11U, 0.0328; under G2A G11A, 0.0786.

As to G1U G25C, the self-cleavage came out at 0.17.

As to G1U G25A, the self-cleavage came out at 0.354.

For G2A C19A, the self-cleavage was 0.0292. G2U A87U: the self-cleavage amounted to 0.0747.

Consider C3A A70C, for which the self-cleavage was 0.501. With G2A G6A the figure was 0.0563; with G1C U47G, 0.128. Consider G2U U46G, for which the self-cleavage was 0.0231.

Regarding G2U U46A, the self-cleavage was 0.0187. Under G2U A45U stands 0.0554; under G2U U60C, 0.0287. For the variant G1C U12A, the self-cleavage worked out at 0.

As for G1C U12G, the self-cleavage came to 0.145.

For the variant C3A G52U, the self-cleavage was determined as 0.404. With G1C G82A the figure was 0.0475. Consider G2C A71C, for which the self-cleavage came out at 0.0723. Under G2C A71U stands 0.11; under C3A A83G, 0.434; under G1U C49A, 0.502. With C3A G17C the figure was 0.0329; with G2U U65C, 0.0391; with G2U U65G, 0.0782. With G2U G29C the figure was 0.0252; with G2A C49U, 0.237; with G1C U46A, 0.138. For G1C U46G, the self-cleavage is 0.119. In the case of C3A A8C, the self-cleavage was found to be 0.299. With G2A A83U the figure was 0.119; with C3A G34A, 0.123.

Regarding G2U C18U, the self-cleavage was determined as 0.0755. C3A C61G: the self-cleavage amounted to 0.512. For the variant G1U G10C, the self-cleavage was 0.292.

Turning to C3A C15U, the self-cleavage worked out at 0.371. With G2C A45C the figure was 0.0528. As for G2C A45G, the self-cleavage was determined as 0.107. With C3A C14G the figure was 0.17; with G1U A70U, 0.381; with G2A U37A, 0.0755. Under G1U A56C stands 0.494. Turning to G2U U12C, the self-cleavage stood at 0.0241. With G2U U12G the figure was 0.0346; with G2C C21A, 0. Under G2A G5U stands 0.0453; under G1U U27C, 0.26; under G2U G28C, 0.0234. In the case of C3A A87U, the self-cleavage worked out at 0.632. For the variant C3A C66A, the self-cleavage worked out at 0.473. With G2C A78C the figure was 0. Under C3A G59A stands 0.739. With C3A G59C the figure was 0.668. As to G1C U27C, the self-cleavage came out at 0. Under G1U C61G stands 0.326; under G1U C61A, 0.326. Under G1C U23G stands 0.227; under G1C U23C, 0.0831; under G2A U69A, 0.22.

As to G2C U37A, the self-cleavage was 0.0583. Under G2C A83G stands 0.132; under G2C A83C, 0.0302; under G2U A71G, 0.141. As for G2A A70U, the self-cleavage was 0.228. For the variant G2U C4U, the self-cleavage turned out to be 0.0755.

G2U C4A: the self-cleavage worked out at 0. Under G1C U20G stands 0; under G1C U20C, 0.0723.

On to G2U G81U, for which the self-cleavage was found to be 0.0198. With G2C G67U the figure was 0.026; with G2U C58U, 0.109; with G2U G39A, 0.00989.

Take G2U G39U: the self-cleavage was 0.0543.

As for G2U G50A, the self-cleavage is 0.047. With G2U G50C the figure was 0.0179; with G1U G17C, 0.341; with G2C U9G, 0.0723. Turning to G2C U47G, the self-cleavage amounted to 0.0923. As to G1C G81C, the self-cleavage came out at 0.119. With G1C G81U the figure was 0.192; with C3A G39U, 0.0777; with G2U C14U, 0.0468. Under G2U C14G stands 0.0354; under C3A C48G, 0.795; under G1U G76A, 0.62.

On to C3A C22U, for which the self-cleavage is 0.15. Under C3A C22A stands 0.0716. Under G1C U65C stands 0.128; under G2C C33A, 0.0528. As for G2A A16U, the self-cleavage amounted to 0.0665. With G1U A42U the figure was 0.332. Under G2A C36A stands 0.228; under G2A G38U, 0.0373; under G2A G52C, 0.112.

As for G2A G52A, the self-cleavage came to 0.143.

Regarding G2A C26G, the self-cleavage was found to be 0.166. Under G2A C26A stands 0.216. Under G2A C22G stands 0.0191; under G2U C3U, 0.0228.

Take G2U C3G: the self-cleavage is 0.0222. Under G2U U79A stands 0.

As for G2U U79G, the self-cleavage stood at 0. Under C3A G54C stands 0.34.
